Broadly, the Kd is a measure of binding affinity in units of concentration.

The chains are these.
B1: ARC645 (mixed)
RNA: GGGAGAGGAGAGAACGUUCUACAGGUAGGCAAGAUAUUGGGGGAAGCGGGUGGGGUCGAUCGAUCGAUCAUCGAUG
modifications: deoxy A,G; 2'-OMe C,U
B2: ARC644 (mixed)
RNA: GGGAGAGGAGAGAACGUUCUACUAGUGAGGCGGUAACGGGGGGUGAGGGUGGGGUCGAUCGAUCGAUCAUCGAUG
modifications: deoxy A,G; 2'-OMe C,U
B3: ARC620 (mixed)
RNA: B2 RNA with U23A, A24G, U26A, G27A, G33C, A35U, A36G, U50A
modifications: deoxy A,G; 2'-OMe C,U
B4: ARC628 (mixed)
RNA: GGGAGAGGAGAGAACGUUCUACAGGCAAGGCAAUUGGGGAGCGUGGGUGGGGGGGUCGAUCGAUCGAUCAUCGAUG
modifications: deoxy A,G; 2'-OMe C,U
B5: ARC643 (mixed)
RNA: GGGAGAGGAGAGAACGUUCUACAGGCCGAUGAGGGGGAGCAGUGGGUGGGGGGUCGAUCGAUCGAUCAUCGAUG
modifications: deoxy A,G; 2'-OMe C,U
B6: ARC635 (mixed)
RNA: GGGAGAGGAGAGAACGUUCUACAGGCUCAAAAGAGGGGGAUGUGGGAGGGGGUCGAUCGAUCGAUCAUCGAUG
modifications: deoxy A,G; 2'-OMe C,U
B7: ARC646 (mixed)
RNA: GGGAGAGGAGAGAACGUUCUACACAUGGCUCGAAAGAGGGGCGUGAGGGUGGGGUCGAUCGAUCGAUCAUCGAUG
modifications: deoxy A,G; 2'-OMe C,U
B8: ARC642 (mixed)
RNA: GGGAGAGGAGAGAACGUUCUACAGGCGCAGCCAGCGGGGAGUGAGGGUGGGGGUCGAUCGAUCGAUCAUCGAUG
modifications: deoxy A,G; 2'-OMe C,U
B9: ARC611 (mixed)
RNA: GGGAGAGGAGAGAACGUUCUACAGGCAAGGCAAUUGGGGAGUGUGGGUGGGGGGUCGAUCGAUCGAUCAUCGAUG
modifications: 2'-deoxy A and G, 2'-OMe C and U (dRmY)
B10: ARC632 (mixed)
RNA: GGGAGAGGAGAGAACGUUCUACAAUUGCAGGUGGUGCCGGGGGUUGGGGGCGGGUCGAUCGAUCGAUCAUCGAUG
modifications: 2'-deoxy A and G, 2'-OMe C and U (dRmY)
B11: ARC621 (mixed)
RNA: GGGAGAGGAGAGAACGUUCUACAGGCGGUUACGGGGGAUGCGGGUGGGACAGGUCGAUCGAUCGAUCAUCGAUG
modifications: 2'-deoxy A and G, 2'-OMe C and U (dRmY)
B12: ARC616 (mixed)
RNA: GGGAGAGGAGAGAACGUUCUACGAUAUAGGCGGUACGGGGGGAGUGGGCUGGGGUCGAUCGAUCGAUCAUCGAUG
modifications: 2'-deoxy A and G, 2'-OMe C and U (dRmY)

Substitutions are numbered along the chain they refer to.

T2 sequence (P29459 23-219, chain 1 of 2): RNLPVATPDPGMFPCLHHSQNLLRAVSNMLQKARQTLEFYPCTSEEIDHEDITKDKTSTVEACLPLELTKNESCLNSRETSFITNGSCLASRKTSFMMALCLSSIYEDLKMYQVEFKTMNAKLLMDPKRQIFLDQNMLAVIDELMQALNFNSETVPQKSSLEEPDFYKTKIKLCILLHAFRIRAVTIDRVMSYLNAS
T2 sequence (P29460 23-328, chain 2 of 2): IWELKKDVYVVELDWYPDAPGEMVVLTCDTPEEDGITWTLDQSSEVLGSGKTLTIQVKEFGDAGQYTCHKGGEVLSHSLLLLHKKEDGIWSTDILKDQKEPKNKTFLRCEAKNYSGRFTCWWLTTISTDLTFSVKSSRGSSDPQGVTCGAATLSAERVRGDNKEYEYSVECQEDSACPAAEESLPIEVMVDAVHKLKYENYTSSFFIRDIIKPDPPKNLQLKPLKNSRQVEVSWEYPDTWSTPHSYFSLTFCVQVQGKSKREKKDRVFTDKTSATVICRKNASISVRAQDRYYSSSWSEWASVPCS

The target of the first data set is T1, IL-23 (human, p19/p40 heterodimer) (Homo sapiens, UniProt Q9NPF7;P29460 SEQ:20-189,SEQ:23-328). Description: filter; PBS, tRNA, ssDNA, BSA. As to conditions: tags: R&D Systems, carrier free. Here is the method: (§1) The clones were 5′end labeled with γ-³²P ATP, and were assayed for both IL-23 and IL-12 binding in a 3-point dot blot screen (0 nM, 20 nM, and 100 nM h-IL-23; 0 nM, 20 nM, and 100 nM h-IL-12) (data not shown). […] KD values were determined by fitting an equation describing a 1:1 RNA:protein complex to the resulting data (fraction aptamer bound=amplitude*([IL-23]/(KD+[IL-23]))+background binding) (KaleidaGraph v. 3.51, Synergy Software). Results of protein binding characterization for the higher affinity clones are tabulated in Table 13, and corresponding clone sequences are listed in Table 12.
T1 sequence (Q9NPF7 20-189, chain 1 of 2): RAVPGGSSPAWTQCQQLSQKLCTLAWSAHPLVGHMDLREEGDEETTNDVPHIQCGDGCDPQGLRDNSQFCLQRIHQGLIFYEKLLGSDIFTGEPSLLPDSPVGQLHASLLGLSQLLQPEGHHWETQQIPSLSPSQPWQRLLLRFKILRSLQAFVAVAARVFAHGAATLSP
T1 sequence (P29460 23-328, chain 2 of 2): as the sequence (P29460 23-328, chain 2 of 2) above
On to B1, for which the Kd is 33.5 nM.
On to B2, for which the Kd turned out to be 34.5 nM.
Take B3: the Kd came to 44.8 nM.
B4: the Kd came out at 57.8 nM.
Consider B5, for which the Kd was found to be 71.6 nM.
The same measure, in the same setting: the same measure for B6: 172 nM.
Still for that read-out and setting: the same measure for B7: 208 nM; for B8: 37.2 nM.

The next data set has as its target T2, IL-12 (human, p35/p40 heterodimer) (Homo sapiens, UniProt P29459;P29460 SEQ:57-253,SEQ:23-328). Nature of the data set: filter; PBS, tRNA, ssDNA, BSA.
Conditions: not given
Here is the method:
as §1
For B1, the Kd is 137 nM.
On the same count and under the same terms, the figure for B2 is 193 nM.
On the same count and under the same terms, the same measure for B3: 179 nM.
The same measure, in the same setting: the same measure for B4: 146 nM; for B5: 309 nM; for B6: 431 nM.
On to B7, for which the Kd was determined as 383 nM.
Consider B8, for which the Kd is 188 nM.

The target in a further data set is T1, IL-23 (human, p19/p40 heterodimer). Nature of the data set: filter; 1X PBS, tRNA, ssDNA, BSA, 30 min RT. As to conditions: tags: R&D Systems, carrier free; label: 5'-32P; G4 (predicted). The method, then: as §1
For B9, the Kd was 21.3 nM.
The same measure, in the same setting: the figure for B10 is 19.1 nM.
On the same count and under the same terms, the figure for B11 is 28.8 nM.
B12: the Kd was 13.1 nM.

Another data set addresses T2, IL-12 (human, p35/p40 heterodimer). Description: filter; 1X PBS, tRNA, ssDNA, BSA, 30 min RT. As to conditions: label: 5'-32P; G4 (predicted). The method, then: as §1
For B9, the Kd was 123 nM.
Same read-out and setting: the same measure for B10: 63.9 nM; for B11: 112 nM; for B12: 52.1 nM.
